One molecule from article PMC2938955 (Biochemistry, 2010) can be followed below.

Assay [1] deals with p150^Glued CAP-gly domain, wildtype (residues 19-107) (UniProt Q14203-1 19-107). Put plainly: SEC. (SEC sorts molecules by how far they enter the pores of the column.)
Assay [2] has as its target p150^Glued CAP-gly domain (residues 19-107) G59A (UniProt Q14203-1 19-107, G59A). Put plainly: SEC.

Chain of p150^Glued CAP-gly domain, wildtype (residues 19-107) (Q14203 19-107): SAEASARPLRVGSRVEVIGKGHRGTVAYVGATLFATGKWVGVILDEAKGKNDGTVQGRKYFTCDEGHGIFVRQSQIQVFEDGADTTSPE
Chain of p150^Glued CAP-gly domain (residues 19-107) G59A (Q14203 19-107 G59A): as the sequence (Q14203 19-107) above, with G41A counted along it

B1: EB1 fragment (residues 194 to 268) (domain or fragment, UniProt Q15691 194-268, looked up)
chain: AELMQQVNVLKLTVEDLEKERDFYFGKLRNIELICQENEGENDPVLQRIVDILYATDEGFVIPDEGGPQEEQEEY
Regarding B1, the binding result in assay [1] and in assay [2] was “binds” throughout.
